Data reported in the Human Domainome abundance scans (Beltran et al. 2025).
± gives the uncertainty stated by the source.

B1: Protein C-ets-1, residues 55 to 135; numbered along this chain, P14921 (parent)
chain: GFTKEQQRLGIPKDPRQWTETHVRDWVMWAVNEFSLKGVDFQKFCMNGAALCALGKDCFLELAPDFVGDILWEHLEILQKE

Variants of: B1
Assay: abundance fitness (aPCA) (normalised: wild type 0, dead -1); higher = more abundant; growth selection in yeast, the domain comes from the species named
Details: Homo sapiens

Row | Variant | abundance fitness
1 | GFTKEQQRLGIPKDPRQWTETHVRDWVMWAVNEFSLKGVDFQKFCMNGAALCALGIDCFLELAPDFVGDILWEHLEILQKE | -0.702 ± 0.11
2 | GFTKEQQRLGIPKDPRQWTETHVRDWVMWAVNEFSLKGVDFQKFCMNGAALCALGADCFLELAPDFVGDILWEHLEILQKE | -0.482 ± 0.04
3 | GFTKEQQRLGIPKDPRQWTETHVRDWVMWAVNEFSLKGVDFQKFCMNGAALCALGVDCFLELAPDFVGDILWEHLEILQKE | -0.558 ± 0.046
4 | GFTKEQQRLGIPKDPRQWTETHVRDWVMWAVNEFSLKGVDFQKFCMNGAALCALGRDCFLELAPDFVGDILWEHLEILQKE | -0.004 ± 0.034
5 | GFTKEQQRLGIPKDPRQWTETHVRDWVMWAVNEFSLKGVDFQKFCMNGAALCALGFDCFLELAPDFVGDILWEHLEILQKE | -0.865 ± 0.18
6 | GFTKEQQRLGIPKDPRQWTETHVRDWVMWAVNEFSLKGVDFQKFCMNGAALCALGHDCFLELAPDFVGDILWEHLEILQKE | -0.033 ± 0.082
7 | GFTKEQQRLGIPKDPRQWTETHVRDWVMWAVNEFSLKGVDFQKFCMNGAALCALGPDCFLELAPDFVGDILWEHLEILQKE | -0.493 ± 0.043
8 | GFTKEQQRLGIPKDPRQWTETHVRDWVMWAVNEFSLKGVDFQKFCMNGAALCALGGDCFLELAPDFVGDILWEHLEILQKE | -0.851 ± 0.076
9 | GFTKEQQRLGIPKDPRQWTETHVRDWVMWAVNEFSLKGVDFQKFCMNGAALCALGMDCFLELAPDFVGDILWEHLEILQKE | -0.357 ± 0.037
10 | GFTKEQQRLGIPKDPRQWTETHVRDWVMWAVNEFSLKGVDFQKFCMNGAALCALGCDCFLELAPDFVGDILWEHLEILQKE | -0.814 ± 0.11
11 | GFTKEQQRLGIPKDPRQWTETHVRDWVMWAVNEFSLKGVDFQKFCMNGAALCALGSDCFLELAPDFVGDILWEHLEILQKE | -0.7 ± 0.055
12 | GFTKEQQRLGIPKDPRQWTETHVRDWVMWAVNEFSLKGVDFQKFCMNGAALCALGWDCFLELAPDFVGDILWEHLEILQKE | -0.729 ± 0.084
13 | GFTKEQQRLGIPKDPRQWTETHVRDWVMWAVNEFSLKGVDFQKFCMNGAALCALGDDCFLELAPDFVGDILWEHLEILQKE | -0.979 ± 0.22
14 | GFTKEQQRLGIPKDPRQWTETHVRDWVMWAVNEFSLKGVDFQKFCMNGAALCALGLDCFLELAPDFVGDILWEHLEILQKE | -0.635 ± 0.054
15 | GFTKEQQRLGIPKDPRQWTETHVRDWVMWAVNEFSLKGVDFQKFCMNGAALCALGTDCFLELAPDFVGDILWEHLEILQKE | -0.878 ± 0.098
16 | GFTKEQQRLGIPKDPRQWTETHVRDWVMWAVNEFSLKGVDFQKFCMNGAALCAPGKDCFLELAPDFVGDILWEHLEILQKE | -0.775 ± 0.072
17 | GFTKEQQRLGIPKDPRQWTETHVRDWVMWAVNEFSLKGVDFQKFCMNGAALCAIGKDCFLELAPDFVGDILWEHLEILQKE | -0.078 ± 0.064
18 | GFTKEQQRLGIPKDPRQWTETHVRDWVMWAVNEFSLKGVDFQKFCMNGAALCAQGKDCFLELAPDFVGDILWEHLEILQKE | -0.299 ± 0.056
19 | GFTKEQQRLGIPKDPRQWTETHVRDWVMWAVNEFSLKGVDFQKFCMNGAALCATGKDCFLELAPDFVGDILWEHLEILQKE | -0.33 ± 0.042
20 | GFTKEQQRLGIPKDPRQWTETHVRDWVMWAVNEFSLKGVDFQKFCMNGAALCASGKDCFLELAPDFVGDILWEHLEILQKE | -0.445 ± 0.032
21 | GFTKEQQRLGIPKDPRQWTETHVRDWVMWAVNEFSLKGVDFQKFCMNGAALCAGGKDCFLELAPDFVGDILWEHLEILQKE | -0.229 ± 0.027
22 | GFTKEQQRLGIPKDPRQWTETHVRDWVMWAVNEFSLKGVDFQKFCMNGAALCANGKDCFLELAPDFVGDILWEHLEILQKE | -0.302 ± 0.059
23 | GFTKEQQRLGIPKDPRQWTETHVRDWVMWAVNEFSLKGVDFQKFCMNGAALCAAGKDCFLELAPDFVGDILWEHLEILQKE | -0.338 ± 0.032

Row | Variant | abundance fitness
24 | GFTKEQQRLGIPKDPRQWTETHVRDWVMWAVNEFSLKGVDFQKFCMNGAALCAMGKDCFLELAPDFVGDILWEHLEILQKE | -0.022 ± 0.05
25 | GFTKEQQRLGIPKDPRQWTETHVRDWVMWAVNEFSLKGVDFQKFCMNGAALCAKGKDCFLELAPDFVGDILWEHLEILQKE | -0.102 ± 0.05
26 | GFTKEQQRLGIPKDPRQWTETHVRDWVMWAVNEFSLKGVDFQKFCMNGAALCAHGKDCFLELAPDFVGDILWEHLEILQKE | -0.598 ± 0.078
27 | GFTKEQQRLGIPKDPRQWTETHVRDWVMWAVNEFSLKGVDFQKFCMNGAALCAEGKDCFLELAPDFVGDILWEHLEILQKE | -0.614 ± 0.051
28 | GFTKEQQRLGIPKDPRQWTETHVRDWVMWAVNEFSLKGVDFQKFCMNGAALCAWGKDCFLELAPDFVGDILWEHLEILQKE | -0.582 ± 0.051
29 | GFTKEQQRLGIPKDPRQWTETHVRDWVMWAVNEFSLKGVDFQKFCMNGAALCAVGKDCFLELAPDFVGDILWEHLEILQKE | -0.254 ± 0.032
30 | GFTKEQQRLGIPKDPRQWTETHVRDWVMWAVNEFSLKGVDFQKFCMNGAALCAYGKDCFLELAPDFVGDILWEHLEILQKE | -0.292 ± 0.033
31 | GFTKEQQRLGIPKDPRQWTETHVRDWVMWAVNEFSLKGVDFQKFCMNGAALCADGKDCFLELAPDFVGDILWEHLEILQKE | -0.791 ± 0.092
32 | GFTKEQQRLGIPKDPRQWTETHVRDWVMWAVNEFSLKGVDFQKFCMNGAALCARGKDCFLELAPDFVGDILWEHLEILQKE | -0.238 ± 0.028
33 | GFTKEQQRLGIPKDPRQWTETHVRDWVMWAVNEFSLKGVDFQKFCMNGAALCACGKDCFLELAPDFVGDILWEHLEILQKE | -0.666 ± 0.079
34 | GFTKEQQRLGIPKDPRQWTETHVRDWVMWAVNEFSLKGVDFQKFCMNGAALCALLKDCFLELAPDFVGDILWEHLEILQKE | -0.791 ± 0.054
35 | GFTKEQQRLGIPKDPRQWTETHVRDWVMWAVNEFSLKGVDFQKFCMNGAALCALHKDCFLELAPDFVGDILWEHLEILQKE | -0.055 ± 0.066
36 | GFTKEQQRLGIPKDPRQWTETHVRDWVMWAVNEFSLKGVDFQKFCMNGAALCALQKDCFLELAPDFVGDILWEHLEILQKE | -0.08 ± 0.055
37 | GFTKEQQRLGIPKDPRQWTETHVRDWVMWAVNEFSLKGVDFQKFCMNGAALCALMKDCFLELAPDFVGDILWEHLEILQKE | -0.433 ± 0.051
38 | GFTKEQQRLGIPKDPRQWTETHVRDWVMWAVNEFSLKGVDFQKFCMNGAALCALKKDCFLELAPDFVGDILWEHLEILQKE | 0.029 ± 0.059
39 | GFTKEQQRLGIPKDPRQWTETHVRDWVMWAVNEFSLKGVDFQKFCMNGAALCALVKDCFLELAPDFVGDILWEHLEILQKE | -0.448 ± 0.036
40 | GFTKEQQRLGIPKDPRQWTETHVRDWVMWAVNEFSLKGVDFQKFCMNGAALCALRKDCFLELAPDFVGDILWEHLEILQKE | -0.04 ± 0.029
41 | GFTKEQQRLGIPKDPRQWTETHVRDWVMWAVNEFSLKGVDFQKFCMNGAALCALFKDCFLELAPDFVGDILWEHLEILQKE | -0.992 ± 0.15
42 | GFTKEQQRLGIPKDPRQWTETHVRDWVMWAVNEFSLKGVDFQKFCMNGAALCALPKDCFLELAPDFVGDILWEHLEILQKE | 0.01 ± 0.037
43 | GFTKEQQRLGIPKDPRQWTETHVRDWVMWAVNEFSLKGVDFQKFCMNGAALCALAKDCFLELAPDFVGDILWEHLEILQKE | 0.002 ± 0.035
44 | GFTKEQQRLGIPKDPRQWTETHVRDWVMWAVNEFSLKGVDFQKFCMNGAALCALCKDCFLELAPDFVGDILWEHLEILQKE | 0.019 ± 0.057
45 | GFTKEQQRLGIPKDPRQWTETHVRDWVMWAVNEFSLKGVDFQKFCMNGAALCALDKDCFLELAPDFVGDILWEHLEILQKE | 0.061 ± 0.053
46 | GFTKEQQRLGIPKDPRQWTETHVRDWVMWAVNEFSLKGVDFQKFCMNGAALCALEKDCFLELAPDFVGDILWEHLEILQKE | 0.031 ± 0.046

Row | Variant | abundance fitness
47 | GFTKEQQRLGIPKDPRQWTETHVRDWVMWAVNEFSLKGVDFQKFCMNGAALCALNKDCFLELAPDFVGDILWEHLEILQKE | 0.03 ± 0.085
48 | GFTKEQQRLGIPKDPRQWTETHVRDWVMWAVNEFSLKGVDFQKFCMNGAALCALYKDCFLELAPDFVGDILWEHLEILQKE | -0.502 ± 0.064
49 | GFTKEQQRLGIPKDPRQWTETHVRDWVMWAVNEFSLKGVDFQKFCMNGAALCALTKDCFLELAPDFVGDILWEHLEILQKE | 0.041 ± 0.04
50 | GFTKEQQRLGIPKDPRQWTETHVRDWVMWAVNEFSLKGVDFQKFCMNGAALYALGKDCFLELAPDFVGDILWEHLEILQKE | -0.472 ± 0.065
51 | GFTKEQQRLGIPKDPRQWTETHVRDWVMWAVNEFSLKGVDFQKFCMNGAALWALGKDCFLELAPDFVGDILWEHLEILQKE | -0.641 ± 0.046
52 | GFTKEQQRLGIPKDPRQWTETHVRDWVMWAVNEFSLKGVDFQKFCMNGAALCLLGKDCFLELAPDFVGDILWEHLEILQKE | -0.227 ± 0.032
53 | GFTKEQQRLGIPKDPRQWTETHVRDWVMWAVNEFSLKGVDFQKFCMNGAALCNLGKDCFLELAPDFVGDILWEHLEILQKE | 0.01 ± 0.052
54 | GFTKEQQRLGIPKDPRQWTETHVRDWVMWAVNEFSLKGVDFQKFCMNGAALCYLGKDCFLELAPDFVGDILWEHLEILQKE | -0.583 ± 0.081
55 | GFTKEQQRLGIPKDPRQWTETHVRDWVMWAVNEFSLKGVDFQKFCMNGAALCPLGKDCFLELAPDFVGDILWEHLEILQKE | -0.943 ± 0.082
56 | GFTKEQQRLGIPKDPRQWTETHVRDWVMWAVNEFSLKGVDFQKFCMNGAALCDLGKDCFLELAPDFVGDILWEHLEILQKE | 0.067 ± 0.048
57 | GFTKEQQRLGIPKDPRQWTETHVRDWVMWAVNEFSLKGVDFQKFCMNGAALCGLGKDCFLELAPDFVGDILWEHLEILQKE | -0.028 ± 0.023
58 | GFTKEQQRLGIPKDPRQWTETHVRDWVMWAVNEFSLKGVDFQKFCMNGAALCHLGKDCFLELAPDFVGDILWEHLEILQKE | -0.188 ± 0.075
59 | GFTKEQQRLGIPKDPRQWTETHVRDWVMWAVNEFSLKGVDFQKFCMNGAALCFLGKDCFLELAPDFVGDILWEHLEILQKE | -0.655 ± 0.066
60 | GFTKEQQRLGIPKDPRQWTETHVRDWVMWAVNEFSLKGVDFQKFCMNGAALCILGKDCFLELAPDFVGDILWEHLEILQKE | -0.452 ± 0.075
61 | GFTKEQQRLGIPKDPRQWTETHVRDWVMWAVNEFSLKGVDFQKFCMNGAALCQLGKDCFLELAPDFVGDILWEHLEILQKE | -0.097 ± 0.046
62 | GFTKEQQRLGIPKDPRQWTETHVRDWVMWAVNEFSLKGVDFQKFCMNGAALCWLGKDCFLELAPDFVGDILWEHLEILQKE | -0.583 ± 0.045
63 | GFTKEQQRLGIPKDPRQWTETHVRDWVMWAVNEFSLKGVDFQKFCMNGAALCMLGKDCFLELAPDFVGDILWEHLEILQKE | -0.09 ± 0.052
64 | GFTKEQQRLGIPKDPRQWTETHVRDWVMWAVNEFSLKGVDFQKFCMNGAALCTLGKDCFLELAPDFVGDILWEHLEILQKE | -0.039 ± 0.037
65 | GFTKEQQRLGIPKDPRQWTETHVRDWVMWAVNEFSLKGVDFQKFCMNGAALCKLGKDCFLELAPDFVGDILWEHLEILQKE | -0.021 ± 0.048
66 | GFTKEQQRLGIPKDPRQWTETHVRDWVMWAVNEFSLKGVDFQKFCMNGAALCRLGKDCFLELAPDFVGDILWEHLEILQKE | -0.046 ± 0.024
67 | GFTKEQQRLGIPKDPRQWTETHVRDWVMWAVNEFSLKGVDFQKFCMNGAALCELGKDCFLELAPDFVGDILWEHLEILQKE | 0.052 ± 0.044
68 | GFTKEQQRLGIPKDPRQWTETHVRDWVMWAVNEFSLKGVDFQKFCMNGAALCSLGKDCFLELAPDFVGDILWEHLEILQKE | 0.016 ± 0.031
